The values below come from a protein production outcome set (Wang et al. 2014).

The nature of this data set: label from the status in PepcDB records.

On to “MKIGRYEVCGLLGRGGMGVVYKVRQPVTGRVAALKLLKPADILVDLAGMDALREGFLHEATVMASLDHPHVAAVWDVDEAGGLPFFVMEYYCLNLGLLMGESYRVEAPTRRLPLERAVRYARQTLEALRRMHHEGIVHRDVKPFNIMVTGDDAVKLIDFGLSRLRGETRLSPRGVKVGSPYYAPPEQESAPDAVDARADLYPVGVMLFRMLTGVLPTDEERMKDGRIPRASALSDELDEGWDAFFDTAMAADPARRFPDAASMLAALARCEAAWRKQVEATCRLIPEQAAGPGDASDMRHDAGHESVQAGQTDETGQAGQAGQAGQAVTCEGAPAASGGVRCRPVKVGVHEARATFALDALWRPASAARQGLEARDDGTVSHAATGLQWETGGCDFPLTRDEAEAYVEARNALRFAGHDDWRLPTVDELLTLVDAGVTVGDPCVASVFAPLPDPLWTSDRKSYMASWFVSAAMGFVGWQDDTCRFGVRLVRGGSARCRE”, for which the protein production result is “failed”.

As to “MKIGVYGASGRIGKLLLEELKGGYKGLALSSVFVRQKCETDFSSFSHAPLVTNDLKAFVRACECVIDFSLPKGVDNLLEALLECPKILVSGTTGLEKETLEKMQQLALKAPLLHAHNMSIGIMMLNQLAFLTSLKLKDADIEIIETHHNLKKDIPSGTALSLYETCAKARGYDEKNALITHREGLRSKESIGIAALRGGDVAGKHTIGFYLEGEYIELSHTATNRSIFAKGALEVALWLKDKAAKKYEINEMFG”, the protein production entry is on record as “failed”.

Take “MKIIDKLYEKVSKNGFVCIGLDSSIDYIPENMKAGKSVSEALFSYNKEIIDQTYDVCAIYKLQIAYYESYGIEGMIAYRDTLSYLREKDLLSIGDVKRSDIAASAKMYAKAHFEGDFETDFITLNPYMGMDSIEPYEEYIEKGDKGVFVLLRTSNPGAKDFEVLPVDGEEFFYKVGDKMRELNEKYIGKSGFGPIGLVVGATHSEEVEKIRKRYDKMFFLIPGFGAQKADSMNVYKLLEGLNGGVVNSSRAILKNWQNYEDGSEKVGYYARKKAIETYEEIKANEVL”: the protein production entry is given as “not failed”.

Take “MKIIKRAIISLIILSLLISITMSNASASEELYYSVEYKNTATFNKLVKKKSLNVVYNIPELHVAQIKMTKMHANALANYKNDIKYINATCSTCITSEKTIDRTSNESLFSRQWDMNKITNNGASYDDLPKHANTKIAIIDTGVMKNHDDLKNNFSTDSKNLVPLNGFRGTEPEETGDVHDVNDRKGHGTMVSGQTSANGKLIGVAPNNKFTMYRVFGSKKTELLWVSKAIVQAANDGNQVINISVGSYIILDKNDHQTFRKDEKVEYDALQKAINYAKKKKSIVVAAAGNDGIDVNDKQKLKLQREYQGNGEVKDVPASMDNVVTVGSTDQKSNLSEFSNFGMNYTDIAAPGGSFAYLNQFGVDKWMNEGYMHKENILTTANNGRYIYQAGTSLATPKVSGALALIIDKYHLEKHPDKAIELLYQHGTSKNNKPFSRYGHGELDVYKALNVANQKAS”: the protein production entry is reported as “not failed”. Next, “MKIITCYKSVPDEQDIVVNNADGSLDFSRANNKISQYDLNAIEAANQLKTQLDGIQITAMSVGGNALTNAKARKDVLSRGADDLVVVVDEQLEASLPYQTATVLAAAATKQGYDLILCGDGSADLSSQQVSLLVGEILNIPAINGVNKIVSITTDSITVERELENEIETLTITLPAVIAVSTDINSPQIPSMKAILGAAKKPVQQWSVADLGLEPITPRSEQTVLAPKQKVRQRIIIEGDGDDQIAEFAEYLRKIIK”: “failed”. “MKIIVVGGGKVGKALCRSLVEEEHDVILIEENESVLNHVTKRLDIMGIVGNGANFRILEQADVQHCDIFIAITDKDEVNMVAAVLAKRMGAKETIVRVRNPEYSNTYFKDKNFLGFSLVVNPELLTARYIANMVDFPNARSVEHFVNGRVMLMEFKIVDGNNLCQMSLNQFRKRFNNIVICAIERGNELIIPDGDAVIQSGDKIFVTGKRMEMIHFHNFVKNKVIKHLMIIGAGRISYYLLNILKTTNRHLQVKVIELNPKKAELFSQEFPHIHVVQGDGTAKDILLEESAANYDAIATLTGVDEENIIASMFLETLGVQKNITKVNRTSILEIINPEQFSSIITPKSIAVDSMMHFIRGRVNAQDSNLDAMHHVANGRIETLQFEIRQTNKMAGKTLSELHFKTNVLIAAIIRNGKTIFPTGDDILEVGDKIVVITLLTNITHIYDLLKR”: the protein production entry is reported as “failed”.

Turning to “MKIKFKRLDYQEQCRDQILGVFKGIDLKEPENDAQRISNPVFEIGAIKDLLLENIENLRSKQKITQGSVGIDKSLNCDILMETGTGKTFCFLECVYALHKNHHLSKFIVLTPSNAIKLGVLKSVEITREFFKSEYSNTHLESYEDIERFILASNHKCCVLVMTFSAFNKEKNTINKSCLENTNLFNGATSYMQALVSMRPIVIMDEPHRFLGDKTKKYLEQLNALLTLRFGATFKDDYNNLIYTLDSKKAFDCALVKSISVASVGESNECFLELKGIEKKEAAINYTDLENKTQSVKVKEHDNLGVVTQISALEDYIVEKITKTEIRFLNGFNLLLDQKEPFSHLLEGEQEVMLKEAIKSHFEREEGLFKKGIKALCMVFISGVNSYLSENEKPAKLALLFEKLYQQKLEEVLKKPLDENYRAYLECTREDIKKVHGGYFAKSKKEGDETKTIELILKEKEKLLSFDSDLRFIFSQWALQEGWDNPNVMTICKLAPSHSNITKLQQIGRGLRLAVNDKGERITKEHADFDFVNELVVIVPQVEGDFVGAIQQEISEHSLIKQEFSAEELEKSGVVKKGRYGFLLETLEGLGFGEKTGDENFKLTLNQNEFLEKEPELEKLKDEKYLDFEKLKDFLKDRLIGNSRVRDKNERKSEKIKINKENFKKFETLWESLNHQARIAYAIDSESLIDEIVKNINSSFNVSSKIVSVTTHKKVETMGNNAKTEIFERENACVWSLHEFISALSNKVKLSFKSVAKVLENIDENKFNEIKKNEQEGLRRLEELFLEIIYQNIKDKISYQMRETTIKNRKNDAFYDEKGEIREFLDGSLGADKYEIKNSSVREKCLYENFMQVDSEIEKDTIEESNDTKIIVFGKLPRVKIPIGLNQTYSPDFGYVVENNDKKVLLVVETKGVDKKSELRPEEERKISTAKKFFEALKKQGVNIEYKTKMEKDQLSALINEVLNRKD”, the protein production result is “failed”. With “MKIKKNMIKGILLTTIVSFLAKIAADYLPSLGGEAIAMLLGILIGNTVFKDEKWMPGIKWAEKFPIEIGIALMGLTVTLRTISSLKIQGVIFILFQMMATILFVLWVGRRFIKVPSESAMLMASGNAVCGSSAIAAVAPAIRASDDQRRTAVATVSLSGVVLLFLLPVIGPNIFHGNNLLIGALIGGTVQSVGQVVGTASLVNQAVVTYATLFKMLRVILLSVVVFVFARFADRTRADEIKTDSKKVAVPWFVIVFIIFVFINSFFNLSNTVNTGAKSIANFFGIVNLAGIGLNLKWQTVKNSGQKFMIYGLVTVCFQILFAVLMINVLFG”, the protein production result is listed as “failed”. “MKIKRLYLLGAWLLLGVSVSAQITSIQPQPQQVLSQARNLSLPDTYLIVGDTEANTHAVSALKTLLAGKHSDKNGFRIYIGEKGDKAIRKFARQIPNHKEGYYLAINDKEIVLAGQDGRGTFYALQTLAQLLNDNQLPVVEIKDYPSVRFRGVVEGFYGTPWSHEARLRQLKFYGENKMNTYIYGPKDDPYHSSPNWRLPYPEKEALQLQELVKVANENEVDFVWAIHPGQDIKWNQEDRDLLLAKFEKMYDLGVRSFAVFFDDISGEGTNPNKQAELLNYIDEKFVKVKPDVTPLVMCPTEYNKSWSNPKGNYLTTLGEKLNPSIQIMWTGDRVISDITKDGIAWINARIKRPAYIWWNFPVSDYVRDHLLLGPVYGNDTQIADQMSGFVTNPMEHAEASKIAIYSVAGYAWNPEKYNSEQTWKDAIRTILPSAADELEFFAAHNSDLGPNGHKYRRDESVELQPLSQRFLDSYLKNGSYTEADFNALEATFGKMVESGDVLMTNTGNRPLIVEMMPWLRQFKLLGETGQEVLAMAKAYKEGDNSLFIRKYRHVKALQQQMFQVDQTYNQNPYQPGVKTATKVIKPLIDQTFTTVTERYNKEHGTQLDAATDYMPHKLVSDVEQLRNQPLQIKTNRVLVSPANEVIKWGAGCTLTIELDQAYPGENLDIDFGKPDVAAWGQLEISADGKEWQKVDFKQEKNRITLNLKQTPVKAVRFSNVGNAEQEVYLRRFMITLDK”: the protein production result is reported as “failed”. “MKIKVALLDKDKEYLDRLTGVFNTKYADKLEVYSFTDEKNAIESVKEYRIDVLIAEEDFNIDKSEFKRNCGLAYFTGTPGIELIKDEIAICKYQRVDVIFKQILGVYSDMAANVATISGENDKSSVVIFTSPCGGVGTSTVAAACAIAHANMGKKVFYLNIEQCGTTDVFFQAEGNATMSDVIYSLKSRKANLLLKLESCIKQSQEGVSYFSSTKVALDILEISYADIDTLIGNIQGMDNYDEIIVDLPFSLEIEKLKLLSKAWRIIVVNDGSQLSNYKFMRAYESVVLLEQNDDINIIRNMNMIYNKFSNKNSEMLSNISIKTIGGAPRYEHATVRQIIEALTKMEFFEEILQ”: the protein production result is “not failed”.

For the sequence “MKILKISLTVVVEVALIYLFSLLVGWSFMEAFFLGSLAIFGAIWLIALNINQNNNIDHTIYKTGTVKPFQMTWGPYTTGATSLTAFSFIITTIYYLPYFL”, the protein production entry is recorded as “failed”. With “MKILVTSGGTSEAIDSVRSITNHSTGHLGKIITETLLSAGYEVCLITTKRALKPEPHPNLSIREITNTKDLLIEMQERVQDYQVLIHSMAVSDYTPVYMTGLEEVQASSNLKEFLSKQNHQAKISSTDEVQVLFLKKTPKIISLVKEWNPTIHLIGFKLLVDVTEDHLVDIARKSLIKNQADLIIANDLTQISADQHRAIFVEKNQLQTVQTKEEIAELLLEKIQAYHS”, the protein production result is recorded as “not failed”. For “MKIMIFICGEGLGHTSRCLALGKELLNAGHEIKFGAYGYSKELVEKTGYTAQEIPSEIKLVGKAGSLDLTGSIEATLKSAQLLGGPKLLKLLREFKPDVVVSDSYYLGTLAAMVLKLPVYLIINQSNMEEFFKNRGLEHHHHHH”, the protein production entry is “not failed”. Next, “MKINKELYSIALVLTVLFFVFSILISSVASAAQVTRIGSGSDPAIYGNKIVWTSGGVIHLYDLTSKTGTTVSSSAASHPAIYGNKLVWHDKSSGVPRLTVYDIPSGARSYITQDVGNYSFPAIYGNRIVWSANYNRSSYSYNVYMRDISTSTQVWIAQGENPEIYETKITYGYDDDDGRNIAVYDVNTKETINVHHSSQVFNPHMYGNKVIWSNFYTRSGFIQMYDLVAKKAIDVTSDNTGNTLYGSDTIDAGDDTGTHIDISGDEIVYSKSGDDQFGYAGVYVYDIPSAKSTPVYIYPRGTHTTPDIYNDTIVWGIDSSYGGVNDTGIYICDLSVTNTLPPVAEFTANTTYGAAPLVVLFTDASTGGVPTSWIWDFGHGIDSKHVMNATHTFTKPGNYTISLTAGNDAGNNKVMKPNYIVVTNPFPVANFSSNVTHGYPPLSIQFTDLSQNATGWNWDFGDGSNSTQRSPVHEYADSGIYSVNLTAINENGTDSKLTTITVMQLVGVGPYAYITNSGDNNVSVIDTTTNKVTAMIPVGNYPMGVAVTLDGKKVYVTNFFGRTISVIDATKNKVTATIPLGNSPRGVAVSPDGKRVYVPHHEVGNPSNNTTLIIDTDTNEVEATVLVGEVPFGVAVTLDGKKVYVTNLRDKTVSVIDTATNTVIATIPVGDDPCGVAISPDGKKVYVGNRGDSTVSIIDTATNTVTATVDLENSPYGIVVNPTGTKVYVAGTKKAYAAGTVDGFVSVIDTATNKVTATIPVGNSPFGVAVTPDGSKVYVANQLRDTVSVIDTSTNKVTATMNVGRNPNSFGQFIGSLQAQPIFPVANFSSNVTEGYAPLTVKFNDMSQKATSRIWDFNGDGQLDSSNINPVYIYANPGTYTVNLTVSNKNGTDSKTAAINVLTPSSSSGVSSHSSSSGG”: “failed”.
